# Experimental data published in publication PMC3003327.
# Tests used:
# [1] = target: actin filaments (F-actin) of Acanthamoeba castellani cytoplasmic actin (Acanthamoeba castellani); assay: single-molecule TIRF microscopy
# [2] = target: actin filaments (F-actin) of Acanthamoeba castellani cytoplasmic actin (Acanthamoeba castellani); assay: single-filament TIRF elongation rate against VASP concentration
dwell time at the growing barbed end with 1 µM actin [1],dwell time τ1 (single exponential fit without the static molecules) [1],dwell time τ1 on filament regions with p(ADP-Pi) < 0.5 [1],dwell time τ1 on filament regions with p(ADP-Pi) > 0.5 [1],dwell time τ1 on the sides of growing filaments [1],dwell time τ2 (static binding; double exponential fit of all interactions) [1],Kd [2],Substance
1.45 s,0.44 s,1 s,0.93 s,0.22 s,4.99 s,–,"Cy3-KCK-hVASP^1-380aa (C7S, C64S, C334A) (from UniProt P50552 1-380) (natural protein)"
–,–,–,–,–,–,9.2 nM,"human VASP^1-380aa, unlabeled wild type (untagged hVASP^1-380aa) (from UniProt P50552 1-380) (natural protein)"
